In patent US20180371066A1 (C2N DIAGNOSTICS, published 2018):

Assays:
PEP_2875804 = target: T1, PEP_2875804; assay: peptide array of 15-mers of human tau probed with the antibody; label LIN
T1 peptide: AGTYGLGDRKDQGGY

PEP_2875806 = target: T2, PEP_2875806; assay: as above
T2 peptide: GTYGLGDRKDQGGYT

PEP_2875808 = target: T3, PEP_2875808; assay: as above
T3 peptide: TYGLGDRKDQGGYTM

PEP_2875810 = target: T4, PEP_2875810; assay: as above
T4 peptide: YGLGDRKDQGGYTMH

PEP_2875812 = target: T5, PEP_2875812; assay: as above
T5 peptide: GLGDRKDQGGYTMHQ

PEP_2875814 = target: T6, PEP_2875814; assay: as above
T6 peptide: LGDRKDQGGYTMHQD

PEP_2875816 = target: T7, PEP_2875816; assay: as above
T7 peptide: GDRKDQGGYTMHQDQ

PEP_2875818 = target: T8, PEP_2875818; assay: as above
T8 peptide: DRKDQGGYTMHQDQE

PEP_2875820 = target: T9, PEP_2875820; assay: as above
T9 peptide: RKDQGGYTMHQDQEG

PEP_2875822 = target: T10, PEP_2875822; assay: as above
T10 peptide: KDQGGYTMHQDQEGD

PEP_2875824 = target: T11, PEP_2875824; assay: as above
T11 peptide: DQGGYTMHQDQEGDT

PEP_2875826 = target: T12, PEP_2875826; assay: as above
T12 peptide: QGGYTMHQDQEGDTD

[1] = target: T13, recombinant human Tau-412 protein (human, UniProt P10636-7 1-412); assay: SPR Biacore T200, mAb captured on Protein A, Tau-412 analyte, 1-to-1 model, chip A11/1
T13 construct: Analyte of the SPR study; also called human tau (1N4R, 412 amino acids)
Protocol: (§1) Kinetic data was obtained at a flow rate of 40 μL/min to minimize any potential mass transfer effects. Two repeats of the blank (no antigen) and the 2.5 nM concentration of the analyte were programmed into the kinetic run in order to check the stability of both the surface and analyte over the kinetic cycles. For the initial kinetic runs, 2-fold dilutions of Tau-412 from 40 nM to 0.156 nM were run. For kinetic analysis and on subsequent runs, an analyte range of 20 nM to 0.625 nM was selected. This range covered multiple analyte concentrations both above and below the reported KD.
(§2) The association phase was monitored for 500 seconds to allow some of the higher concentrations of analyte to reach steady state. In order to observe a sufficient signal decrease (>10%) during the dissociation phase of the kinetic cycle, dissociation was measured for 1200 seconds. As discussed in Section 5, the Fcs were allowed to stabilize for 600 seconds after each regeneration step. The signal from the reference channel Fc1 was subtracted from that of Fc2, Fc3 and Fc4.
(§3) The kinetic parameters for the interaction of Tau-412 with the 7 mAbs as measured using the Protein A capture system on the Biacore T200 are shown in Table F-2. To correct for differences in the capture level of the antibody between each binding cycle, a local Rₘₐₓ parameter was used in the 1-to-1 binding model. Kinetic analysis was performed in three independent runs using fresh preparations of Tau-412 and antibody. Run 1 and runs 2+3 used different vials of the antigen Tau-412; therefore the reported errors associated with the mean response probably represent variation in preparation of the analyte and differences in assay set-up and run. From run 1 to runs 2+3, the amount of antibody injected was adjusted to try to get closer to the target 300 RU capture levels.

[2] = target: T13, recombinant human Tau-412 protein; assay: SPR Biacore T200, mAb captured on Protein A, Tau-412 analyte, 1-to-1 model, chip A11/3
Protocol: as §1, §2, §3

rhesus monkey tau = target: T14, rhesus monkey tau (rhesus monkey, UniProt P57786 2-60); assay: direct ELISA on 96-well plates coated with tau at varied concentration; OD 650nm
T14 construct: also called rhesus tau
T14 sequence: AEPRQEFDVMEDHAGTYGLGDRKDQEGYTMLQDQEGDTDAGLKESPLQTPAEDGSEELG
Protocol: FIG. 10 illustrates the binding results for different anti human tau antibodies to either human or rhesus monkey tau. Murine anti human tau antibodies HJ8.5 and HJ8.7 alongside humanized variant VH1/VK2 (also referred to as C₂N-8E12) were tested. […] In order to determine whether these amino acid difference between the two species of tau, impacts the ability of antibodies HJ8.5/C₂N-8E12 to bind the following experiment was performed. Binding of C₂N-8E12, HJ8.5 (murine precursor of C₂N-8E12), and HJ8.7 (murine anti-human tau antibody that binds to an epitope of tau where the human and rhesus amino acid sequence is 100% conserved) to human and rhesus tau by coating 96 well ELISA plates with either human or rhesus tau at various concentrations was measured. […] As expected, HJ8.7 binds to both human and rhesus tau.

PEP_2875809 = target: T15, PEP_2875809; assay: peptide array of 15-mers of human tau probed with the antibody; label LIN.AA (double alanine)
T15 peptide: TYGLGDRKDAAGYTM

PEP_2875811 = target: T16, PEP_2875811; assay: as above
T16 peptide: YGLGDRKDQAAYTMH

human tau [3] = target: T17, human tau (human, UniProt P10636 2-60); assay: competition ELISA on plate-coated human tau against biotinylated HJ8.5; IC50 normalised to chimeric HJ8.5; column External
T17 construct: also called soluble human tau; human tau protein

human tau [4] = target: T17, human tau; assay: competition ELISA on plate-coated human tau against biotinylated HJ8.5; IC50 normalised to chimeric HJ8.5; column C2N Run 2

T13 sequence (P10636 other isoform, or with tags, fused parts or gaps limits assumed): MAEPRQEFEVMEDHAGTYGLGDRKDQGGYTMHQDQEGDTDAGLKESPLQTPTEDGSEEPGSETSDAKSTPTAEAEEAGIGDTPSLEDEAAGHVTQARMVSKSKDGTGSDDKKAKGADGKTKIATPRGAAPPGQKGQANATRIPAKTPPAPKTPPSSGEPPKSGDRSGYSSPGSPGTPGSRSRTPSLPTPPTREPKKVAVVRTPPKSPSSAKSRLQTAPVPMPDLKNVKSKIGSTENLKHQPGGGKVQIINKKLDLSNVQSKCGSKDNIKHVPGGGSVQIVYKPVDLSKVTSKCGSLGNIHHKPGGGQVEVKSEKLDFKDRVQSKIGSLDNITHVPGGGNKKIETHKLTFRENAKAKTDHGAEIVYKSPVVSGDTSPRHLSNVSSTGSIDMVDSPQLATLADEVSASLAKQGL
T17 sequence (P10636 2-60 limits assumed): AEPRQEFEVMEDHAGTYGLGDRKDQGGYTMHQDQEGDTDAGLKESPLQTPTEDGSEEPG

Binding Signal (PEP_2875804): 1290
Binding Signal (PEP_2875806): 1710
Binding Signal (PEP_2875808): 2590
Binding Signal (PEP_2875810): 2670
Binding Signal (PEP_2875812): 2730
Binding Signal (PEP_2875814): 2750
Binding Signal (PEP_2875816): 2700
Binding Signal (PEP_2875818): 2790
Binding Signal (PEP_2875820): 2780
Binding Signal (PEP_2875822): 2680
Binding Signal (PEP_2875824): 2650
Binding Signal (PEP_2875826): 789
Kd [1]: 2.18 nM
koff [1]: 0.000611 s⁻¹
kon [1]: 280000 M⁻¹ s⁻¹
Kd [2]: 1.95 nM
koff [2]: 0.000632 s⁻¹
kon [2]: 325000 M⁻¹ s⁻¹
binding result (rhesus monkey tau): no binding
Binding Signal (PEP_2875809): 2760
Binding Signal (PEP_2875811): 1880
IC50 (Relative to Chimera) (human tau [3]): 0.78 relative to Chimera
IC50 (Relative to Chimera) (human tau [4]): 0.91 relative to Chimera
B1: VH1/VK2 humanized anti-tau antibody (C2N-8E12) (antibody, human IgG4 S228P, kappa, V domains shown)
VH: EVKVVESGGGLVQPGGSMKLSCVVSGFTFSNYWVNWVRQAPGKGLEWVAQIRLKSDNYATHYEESVKGRFTISRDDSKSSVYLQMNNLRAEDSGIYYCTNWEDYWGQGTTVTVSS
VL: DIVLTQSPDSLAVSLGERATISCRASQSVSTSRYSYIHWYQQKPGQPPKLLIKYASNLESGVPSRFSGSGSGTDFTLNIHPLEPEDFATYYCHHSWEIPLTFGQGTKLEIKR
notes: Humanized recombinant IgG4 with S241P hinge mutation, human kappa light chain; also called C2N-8EI2
